Measurements: patent US8394929B2, “Nogo receptor-mediated blockade of axonal growth” (Yale University, priority 2000, dated 2013)
Where two headings read alike, the source gives them in different places. Blank lines part the entries; values can stand above or below the molecule they belong to.

Assays:
[1] = test system: GST-Nogo-66 inhibition of neurite outgrowth; assay: Blockade of Nogo-induced inhibition of neurite outgrowth in chick DRG neurons; format: cell-based
Experimental: (§1) For all experiments involving cell culture, the following methods were employed. The culture of embryonic chick E10 and E12 dorsal root ganglion explants and dissociated neurons utilized methods described for E7 dorsal root ganglion cultures (Takahashi et al., (1998) Nature Neurosci. 1, 487-493; Takahashi et al., (1999) Cell 99, 59-69; Goshima et al., (1995) Nature 376, 509-514; Jin & Strittmatter, (1997) J. Neurosci. […]). NGF-differentiated PC12 cells were cultured as described (Strittmatter et al., (1994) J. Neurosci. 14, 2327-2338). Embryonic spinal cord explants (rat E10 or chick E5) were cultured for 7-14 days in the presence of PDGF-AA to induce differentiation of some cells into mature oligodendrocytes (Vartanian et al., (1999) Proc. Natl. Acad. Sci. USA 96, 731-735). The procedure for growth cone collapse assays is identical to that for analysis of Sema3A-induced growth cone collapse (Takahashi et al., (1998) Nature Neurosci. 1, 487-493; Takahashi et al., (1999) Cell 99, 59-69; Goshima et al., (1995) Nature 376, 509-514; Jin & Strittmatter, (1997) J. Neurosci. 17, 6256-6263). The method for analysis of total neurite outgrowth has also been described (Goshima et al., (1995) Nature 376, 509-514; Jin & Strittmatter, (1997) J. Neurosci. 17, 6256-6263; Strittmatter et al., (1994) J. Neurosci. 14, 2327-2338). In outgrowth assays, proteins and peptides were added one hour after plating to minimize any effect on the total number of adherent cells. To test the effect of substrate-bound GST or GST-Nogo, the protein solutions were dried on poly-L-lysine coated glass, washed and then coated with laminin. For E12 cultures, the neuronal identity of cells was verified by staining with anti-neurofilament antibodies (2H3, Develomental Studies Hybridoma Bank) and neurites were traced by observation of rhodamine-phalloidin staining of F-actin in processes.
Peptide 140 was tested for its ability to neutralize neurite outgrowth inhibition caused by the addition of GST fused to residues #1055-1120 of hNogoA (designated Nogo-66 in FIG. 16e). Plastic chamber slides were coated with 100 μg ml^−1 poly-L-lysine, washed, and dried. 3 μl drops of PBS containing GST-hNogoA(residues #1055-1120) were spotted and dried. Slides were then rinsed and coated with 10 μg ml fs24^−1 laminin before addition of dissociated E12 chick DRGs. Peptide 140 was added at the time of cell plating. Cultures were grown for 5-7 h after which neurite outgrowth was assessed.
Although the role of the GPI anchor may be to regulate NgR cellular compartmentalization, another possible role for the GPI linkage is to provide a NgR cleavage site. Cleaving NgR could serve to affect hNogo-A (1055-1120) signaling by rendering a neuron insensitive to hNogo-A (1055-1120) and by releasing soluble NgR that could then act on adjacent cells to modulate hNogo-A (1055-1120) signaling. To determine if soluble mNgR modulates hNogo-A (1055-1120)-dependent inhibition, a soluble mNgR was generated by inserting a truncated cDNA encoding mNgR residues 1-348 in frame with a myc-His carboxy tag into pcDNA3.1. The resulting plasmid expressing mNgREcto was transfected into HEK293T cells, and conditioned media containing mNgREcto protein was collected. To test the effect of mNgREcto on Nogo signaling, E13 dissociated DRGs were plated in the presence of hNogo-A (1055-1120) or myelin. The inhibitors were presented in either soluble or substrate-bound forms. For neurite outgrowth assays on hNogo-A (1055-1120) or myelin substrates, Permanox chamber slides were coated with 100μ, fs24 g ml^−1 poly-L-Lysine, washed, and then 3-μl drops of phosphate-buffered saline (hereinafter “PBS”) containing 0, 10, 50, or 150 ng of GST-hNogo-A (1055-1120) or myelin were spotted and dried. GST-hNogo-A (1055-1120) and myelin were prepared as previously described (GrandPre et al., supra; Fournier et al., J. Cell Biol. 149:411-421, 2000). After three PBS washes, slides were coated with 10 μg ml^−1 laminin. […]

[2] = test system: chick E12 dorsal root ganglion growth cones; assay: Growth cone collapse assay in chick dorsal root ganglion explants; format: cell-based
Experimental: as §1
The expression of recombinant Nogo in HEK293T cells allows a rigorous test of whether this protein has axon outgrowth inhibiting effects. Washed membrane fractions from vector- or hNogo-A-Myc-transfected HEK293T cells were added to chick E12 dorsal root ganglion explant cultures. Growth cone morphology was assessed after a thirty minute incubation at 37° C. by fixation and rhodamine-phalloidin staining.
Briefly, for growth cone collapse, DRG explants were plated on plastic chamber slides precoated with 100 μg ml^−1 poly-L-lysine and 10 μg ml^−1 laminin. Cultures were grown 14-16 h prior to treatment.

[3] = test system: chick dorsal root ganglion neurons; assay: Neurite outgrowth assay in chick DRG neurons; format: cell-based
Experimental: as §1
For neurite outgrowth assays, plastic chamber slides were coated with 100 μg ml^−1 poly-L-lysine, washed, and dried. 3 μl drops of PBS containing GST-Nogo-66 were spotted and dried. Slides were then rinsed and coated with 10 μg ml fs24^−1 laminin before addition of dissociated E12 chick DRGs. AP-fusion proteins were added at the time of cell plating. Cultures were grown for 5-7 h after which neurite outgrowth was assessed.

mouse NgR = biological target: T1, mouse NgR (Mus musculus, UniProt Q99PI8); assay: AP-fusion protein binding to COS-7 cells expressing mouse NgR
T1 construct: expressed in transfected cells; host or cells: COS-7
T1 sequence (Q99PI8 27-473): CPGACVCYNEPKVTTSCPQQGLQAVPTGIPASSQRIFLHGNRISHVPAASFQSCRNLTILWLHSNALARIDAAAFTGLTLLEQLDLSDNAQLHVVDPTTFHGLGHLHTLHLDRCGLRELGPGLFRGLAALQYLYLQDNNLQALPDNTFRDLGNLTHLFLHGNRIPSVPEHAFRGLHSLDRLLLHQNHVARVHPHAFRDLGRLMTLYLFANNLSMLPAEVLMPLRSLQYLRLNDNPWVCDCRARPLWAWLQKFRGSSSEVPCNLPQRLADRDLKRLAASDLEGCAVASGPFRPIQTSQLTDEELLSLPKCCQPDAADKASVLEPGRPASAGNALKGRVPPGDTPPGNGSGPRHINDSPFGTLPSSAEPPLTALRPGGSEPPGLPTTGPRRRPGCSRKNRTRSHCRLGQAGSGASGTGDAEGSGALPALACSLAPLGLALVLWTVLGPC

[4] = soluble protein or peptide added to culture

Molecule: Pep2-41: 2-41 fragment of the 66 amino acid region of Nogo, acetylated and amidated at the termini (Ac-RIYKGVIQAIQKSDEGHPFRAYLESEVAISEELVQKYSNS-NH2)
- blockade of Nogo-induced neurite outgrowth inhibition (in words) [1]: can reverse the inhibition of neurite outgrowth
- blockade of Nogo-induced neurite outgrowth inhibition (in words) ([1]; listed as 2-41 fragment): blocks

Molecule: Peptide 140: synthetic peptide of amino acids #1055-1094 of the human NogoA protein, acetylated and amidated at the termini (Ac-RIYKGVIQAIQKSDEGHPFRAYLESEVAISEELVQKYSNS-NH2; UniProt Q9NQC3 1055-1094, looked up, fragment)
- blockade of Nogo-induced neurite outgrowth inhibition (in words) [1]: extensive outgrowth is observed
- growth cone collapse activity (in words) ([2]; added to DRG explant cultures, thirty minutes): does not induce significant growth cone collapse
- neurite/axon outgrowth (in words) [3, 4]: no observable effect on neurite outgrowth

B1: AP-Nogo: fusion protein of His6 tag, placental alkaline phosphatase (AP) and the 66 amino acid active domain of Nogo (protein)
chain: HHHHHHIIPVEEENPDFWNREAAEALGAAKKLQPAQTAAKNLIIFLGDGMGVSTVTAARILKGQKKDKLGPEIPLAMDRFPYVALSKTYNVDKHVPDSGATATAYLCGVKGNFQTIGLSAAARFNQCNTTRGNEVISVMNRAKKAGKSVGVVTTTRVQHASPAGTYAHTVNRNWYSDADVPASARQEGCQDIATQLISNMDIDVILGGGRKYMFRMGTPDPEYPDDYSQGGTRLDGKNLVQEWLAKRQGARYVWNRTELMQASLDPSVTHLMGLFEPGDMKYEIHRDSTLDPSLMEMTEAALRLLSRNPRGFFLFVEGGRIDHGHHESRAYRALTETIMFDDAIERAGQLTSEEDTLSLVTADHSHVFSFGGYPLRGSSIFGLAPGKARDRKAYTVLLYGNGPGYVLKDGARPDVTESESGSPEYRQQSAVPLDEETHAGEDVAVFARGPQAHLVHGVQEQTFIAHVMAFAACLEPYTACDLAPPAGTTDAAHPGRIYKGVIQAIQKSDEGHPFRAYLESEVAISEELVQKYSNSALGHVNCTIKELRRLFLVDDLVDSLK
- relative potency in growth cone collapse (comparator in the words) [2]: slightly more potent than GST-Nogo
- growth cone collapse (in words) ([2]; conditioned medium, AP-fusion protein final concentration 20 nM, E12 chick DRG): potent growth-cone-collapsing agent

- reduction of binding of AP-Nogo-66 (mouse NgR; 0.5 nM AP-Nogo-66, NgR-ecto conditioned medium, COS-7 cells expressing full length NgR): 80%
B2: NgR-ecto: secreted fragment of amino acid residues 1-348 of the murine NgR, in HEK293T conditioned medium (protein)
chain: CPGACVCYNEPKVTTSCPQQGLQAVPTGIPASSQRIFLHGNRISHVPAASFQSCRNLTILWLHSNALARIDAAAFTGLTLLEQLDLSDNAQLHVVDPTTFHGLGHLHTLHLDRCGLRELGPGLFRGLAALQYLYLQDNNLQALPDNTFRDLGNLTHLFLHGNRIPSVPEHAFRGLHSLDRLLLHQNHVARVHPHAFRDLGRLMTLYLFANNLSMLPAEVLMPLRSLQYLRLNDNPWVCDCRARPLWAWLQKFRGSSSEVPCNLPQRLADRDLKRLAASDLEGCAVASGPFRPIQTSQLTDEELLSLPKCCQPDAADKASVLE
modifications: left off: small tags and cut ends
notes: secreted fragment of amino acid residues 1-348 of the murine NgR, in HEK293T conditioned medium
- blockade of Nogo-induced neurite outgrowth inhibition (in words) [1]: blocks Nogo-66-induced inhibition of neurite outgrowth
- blockade of Nogo-induced neurite outgrowth inhibition (in words) ([1]; listed as NgREcto): partially reversed

- displacement of AP-Nogo (in words) (mouse NgR): displaces AP-Nogo
B3: GST-Nogo: GST fusion protein of the 66 amino acid lumenal-extracellular fragment of Nogo-A, expressed in E. coli (protein)
chain: RIYKGVIQAIQKSDEGHPFRAYLESEVAISEELVQKYSNSALGHVNCTIKELRRLFLVDDLVDSLK
modifications: also: GST fusion protein
notes: GST fusion protein of the 66 amino acid lumenal-extracellular fragment of Nogo-A, expressed in E. coli
- relative potency in growth cone collapse (comparator in the words) [2]: even more potent than the urea-extracted protein
- relative potency in growth cone collapse (comparator in the words) ([2]; listed as GST-Nogo-66): two orders of magnitude more potent than Amino-Nogo
- concentration acutely altering growth cone morphology (as low as) ([2]; soluble GST-Nogo purified on glutathione-Sepharose resin): 1 nM
- growth cone morphology (in words) ([2]; soluble form at 100 nM, chick E12 DRG): collapses chick E12 dorsal root ganglion growth cones
- EC50 ([2]; urea-extracted GST-Nogo, chick E12 dorsal root ganglion neurons, read-out: EC50 growth cone collapsing activity): 50 nM
- neurite/axon outgrowth (in words) [3, 4]: blocked
- neurite/axon outgrowth (in words) ([3]; soluble protein or peptide added to culture, listed as Nogo-66): nearly abolishes axonal extension
- neurite/axon outgrowth (in words) ([3]; substrate-bound / coated surfaces): reduced to undetectable levels
- neurite/axon outgrowth (in words) ([3]; substrate-bound / coated surfaces, listed as GST-hNogoA (residues #1055-1120)): dramatically reduces growth
